Several values for one entry are separate records, joined by “and”; a condition that tells them apart may be missing. Equal values may be shown once.
Molecular target: tau oligomers (UniProt P10636 1-758)
Assay: SPR; who was immobilised and the conditions not given
Details: both partners purified

B1: cellular prion protein (natural protein)
chain: not shown
notes: also called PrP^C; PrPC
  Kd: 20 nM and 50 nM

Reference: article PMC11710176 (Alzheimer's & Dementia, 2024)
